Reference: publication PMC7545189, “Structural characterization of the ICOS/ICOS-L immune complex reveals high molecular mimicry by therapeutic antibodies” (Nature Communications, 2020)

B1: human ICOS ectodomain (residues 21-138), untagged, disulfide-linked homodimer [human] / human ICOS-L ectodomain (residues 19-248), His-tagged, immobilised on Ni-NTA biosensors [human] (parent)
chain 1: EINGSANYEMFIFHNGGVQILCKYPDIVQQFKMQLLKGGQILCDLTKTKGSGNTVSIKSLKFCHSQLSNNSVSFFLYNLDHSHANYYFCNLSIFDPPPFKVTLTGGYLHIYESQLCCQ
chain 2: DTQEKEVRAMVGSDVELSCACPEGSRFDLNDVYVYWQTSESKTVVTYHIPQNSSLENVDSRYRNRALMSPAGMLRGDFSLRLFNVTPQDEQKFHCLVLSQSLGFQEVLSVEVTLHVAANFSVPVVSAPHSPSQDELTFTCTSINGYPRPNVYWINKTDNSLLDQALQNDTVFLNMRGLYDVVSVLRIARTPSVNIGCCIENVLLQQNLTVGSQTGNDIGERDKITENPVS

Variants of: B1
Assay: BLI
Settings: with human ICOS-L ectodomain (residues 19-248), parent: 9.8 nM, read off a plot

| Variant | Kd [nM] |
| --- | --- |
| chain 1 EINGSANYEMFIFHNGGVQILCKYPDIVQQFKMQLLKGGQILCDLTKTKGSGNTVSIKSLKFCHSQLSNNSVSFFLYNLDHSHANYYFCQLSIFDPPPFKVTLTGGYLHIYESQLCCQ [chain 1 N90Q] | 2.7 |

Same assay, conditions: with human ICOS-L ectodomain (residues 19-248), parent: 0.0033, read off a plot

| Variant | koff [s⁻¹] |
| --- | --- |
| chain 1 EINGSANYEMFIFHNGGVQILCKYPDIVQQFKMQLLKGGQILCDLTKTKGSGNTVSIKSLKFCHSQLSNNSVSFFLYNLDHSHANYYFCQLSIFDPPPFKVTLTGGYLHIYESQLCCQ [chain 1 N90Q] | 0.0021 |

Same assay, conditions: with human ICOS-L ectodomain (residues 19-248), parent: 3.3e+05, read off a plot

| Variant | kon [M⁻¹ s⁻¹] |
| --- | --- |
| chain 1 EINGSANYEMFIFHNGGVQILCKYPDIVQQFKMQLLKGGQILCDLTKTKGSGNTVSIKSLKFCHSQLSNNSVSFFLYNLDHSHANYYFCQLSIFDPPPFKVTLTGGYLHIYESQLCCQ [chain 1 N90Q] | 730000 |
